Measurements reported in patent US20110091994A1, “Methods for Screening Compounds for Treating and/or Preventing an Hepatitis C Virus Infection” (priority 2008, published 2011).
Like-named read-outs stand apart in the source and are kept apart here.

Experiments:
HCV proteins = target: T1, HCV proteins (Hepatitis C virus genotype 1b, UniProt Q9WMX2); assay: Validation by Y2H pairwise matrices; assay type: binding;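 note: yeast two-hybrid pairwise tests of interactions first found in Y2H screens of HCV bait proteins against human cDNA libraries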
T1 construct: expressed in transfected cells

[1] = test system: HCV ORFs (Gal4-DB fusions); assay type: binding, HCV genotype 1b, isolate con1; details: human protein listed by gene symbol; the value names the HCV protein it interacts with
[2] = target: T2, HCV ORFs (Gal4-DB fusions) (Hepatitis C virus genotype 1b, UniProt Q9WMX2); assay type: binding, HCV genotype 1b, isolate con1; details: human protein as prey
T2 construct: expressed in transfected cells; host or cells: Saccharomyces cerevisiae MAV203 (IMAP1) / AH109 (IMAP2)

[3] = validation of interaction with HCV protein NS3
[4] = validation of interaction with HCV protein CORE
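Throughout, for IMAP Y2H IMAP1 (number of IST): yeast two-hybrid screens using HCV genotype 1b proteins fused to Gal4-DB as baits against prey cDNA libraries from human spleen and foetal brain, IMAP1 via transformation and IMAP2 via mating.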
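Throughout, for IMAP Y2H IMAP2 (number of IST): yeast two-hybrid screens using HCV genotype 1b proteins fused to Gal4-DB as baits against prey cDNA libraries from human spleen and foetal brain, IMAP1 via transformation and IMAP2 via mating.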
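Throughout, for Interaction with viral protein: yeast two-hybrid screens using HCV genotype 1b proteins fused to Gal4-DB as baits against prey cDNA libraries from human spleen and foetal brain, IMAP1 via transformation and IMAP2 via mating.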

B1: LZTS2 (protein, UniProt Q9BRK4 1-669, looked up)
Leucine zipper putative tumor …: MAIVQTLPVPLEPAPEAATAPQAPVMGSVSSLISGRPCPGGPAPPRHHGPPGPTFFRQQDGLLRGGYEAQEPLCPAVPPRKAVPVTSFTYINEDFRTESPPSPSSDVEDAREQRAHNAHLRGPPPKLIPVSGKLEKNMEKILIRPTAFKPVLPKPRGAPSLPSFMGPRATGLSGSQGSLTQLFGGPASSSSSSSSSSAADKPLAFSGWASGCPSGTLSDSGRNSLSSLPTYSTGGAEPTTSSPGGHLPSHGSGRGALPGPARGVPTGPSHSDSGRSSSSKSTGSLGGRVAGGLLGSGTRASPDSSSCGERSPPPPPPPPSDEALLHCVLEGKLRDREAELQQLRDSLDENEATMCQAYEERQRHWQREREALREDCAAQAQRAQRAQQLLQLQVFQLQQEKRQLQDDFAQLLQEREQLERRCATLEREQRELGPRLEETKWEVCQKSGEISLLKQQLKESQAELVQKGSELVALRVALREARATLRVSEGRARGLQEAARARELELEACSQELQRHRQEAEQLREKAGQLDAEAAGLREPPVPPATADPFLLAESDEAKVQRAAAGVGGSLRAQVERLRVELQRERRRGEEQRDSFEGERLAWQAEKEQVIRYQKQLQHNYIQMYRRNRQLEQELQQLSLELEARELADLGLAEQAPCICLEEITATEI
With B1 the Y2H matrices (HCV proteins; [3]) was “+”, the “Interaction with viral protein” value [1] was “NS3” and the “IMAP Y2H IMAP1 (number of IST)” value ([2]; HCV protein NS3 as bait) was 8.

B2: MAGED1 (protein, UniProt Q9Y5V3 1-778, looked up)
Melanoma-associated antigen D1: MAQKMDCGAGLLGFQAEASVEDSALLMQTLMEAIQISEAPPTNQATAAASPQSSQPPTANEMADIQVSAAAARPKSAFKVQNATTKGPNGVYDFSQAHNAKDVPNTQPKAAFKSQNATPKGPNAAYDFSQAATTGELAANKSEMAFKAQNATTKVGPNATYNFSQSLNANDLANSRPKTPFKAWNDTTKAPTADTQTQNVNQAKMATSQADIETDPGISEPDGATAQTSADGSQAQNLESRTIIRGKRTRKINNLNVEENSSGDQRRAPLAAGTWRSAPVPVTTQNPPGAPPNVLWQTPLAWQNPSGWQNQTARQTPPARQSPPARQTPPAWQNPVAWQNPVIWPNPVIWQNPVIWPNPIVWPGPVVWPNPLAWQNPPGWQTPPGWQTPPGWQGPPDWQGPPDWPLPPDWPLPPDWPLPTDWPLPPDWIPADWPIPPDWQNLRPSPNLRPSPNSRASQNPGAAQPRDVALLQERANKLVKYLMLKDYTKVPIKRSEMLRDIIREYTDVYPEIIERACFVLEKKFGIQLKEIDKEEHLYILISTPESLAGILGTTKDTPKLGLLLVILGVIFMNGNRASEAVLWEALRKMGLRPGVRHPLLGDLRKLLTYEFVKQKYLDYRRVPNSNPPEYEFLWGLRSYHETSKMKVLRFIAEVQKRDPRDWTAQFMEAADEALDALDAAAAEAEARAEARTRMGIGDEAVSGPWSWDDIEFELLTWDEEGDFGDPWSRIPFTFWARYHQNARSRFPQTFAGPIIGPGGTASANFAANFGAIGFFWVE
In the case of B2, the Y2H matrices (HCV proteins; [4]) is reported as “+”, the Y2H matrices (HCV proteins; [3]) is reported as “+” and the “Interaction with viral protein” value [1] is reported as “NS3 and CORE”. For the same molecule, the “IMAP Y2H IMAP1 (number of IST)” value ([2]; HCV protein CORE as bait) was 1, the “IMAP Y2H IMAP2 (number of IST)” value ([2]; HCV protein CORE as bait) was 2 and the “IMAP Y2H IMAP1 (number of IST)” value ([2]; HCV protein NS3 as bait) was 1.

B3: MORC4 (protein, UniProt Q8TE76 1-937, looked up)
MORC family CW-type zinc …: MLLYRGAPAGPGAPGCGLARPGGGPQAFGIRLSTMSPRYLQSNSSSHTRPFSAIAELLDNAVDPDVSARTVFIDVEEVKNKSCLTFTDDGCGMTPHKLHRMLSFGFTDKVIKKSQCPIGVFGNGFKSGSMRLGKDALVFTKNGGTLTVGLLSQTYLECVQAQAVIVPIVPFNQQNKKMIITEDSLPSLEAILNYSIFNRENDLLAQFDAIPGKKGTRVLIWNIRRNKNGKSELDFDTDQYDILVSDFDTEEKMTGGVTSELPETEYSLRAFCGILYMKPRMKIFLRQKKVTTQMIAKSLANVEYDTYKPTFTNKQVRITFGFSCKNSNQFGIMMYHNNRLIKSFEKVGCQVKPTRGEGVGVIGVIECNFLKPAYNKQDFEYTKEYRLTINALAQKLNAYWKEKTSQDNFETSTVARPIPKVPDQTWVQCDECLKWRKLPGKIDPSMLPARWFCYYNSHPKYRRCSVPEEQELTDEDLCLSKAKKQEQTVEEKKKMPMENENHQVFSNPPKILTVQEMAGLNNKTIGYEGIHSPSVLPSGGEESRSPSLQLKPLDSSVLQFSSKYKWILGEEPVEKRRRLQNEMTTPSLDYSMPAPYRRVEAPVAYPEGENSHDKSSSERSTPPYLFPEYPEASKNTGQNREVSILYPGAKDQRQGSLLPEELEDQMPRLVAEESNRGSTTINKEEVNKGPFVAVVGVAKGVRDSGAPIQLIPFNREELAERRKAVESWNPVPYSVASAAIPAAAIGEKARGYEESEGHNTPKLKNQRELEELKRTTEKLERVLAERNLFQQKVEELEQERNHWQSEFKKVQHELVIYSTQEAEGLYWSKKHMGYRQAEFQILKAELERTKEEKQELKEKLKETETHLEMLQKAQVSYRTPEGDDLERALAKLTRLRIHVSYLLTSVLPHLELREIGYDSEQVDGILYTVLEANHILD
With B3 the Y2H matrices (HCV proteins; [3]) was “+”, the “Interaction with viral protein” value [1] was “NS3” and the “IMAP Y2H IMAP1 (number of IST)” value ([2]; HCV protein NS3 as bait) was 1.

B4: NEFL (protein, UniProt P07196 2-543, looked up)
Neurofilament light …: SSFSYEPYYSTSYKRRYVETPRVHISSVRSGYSTARSAYSSYSAPVSSSLSVRRSYSSSSGSLMPSLENLDLSQVAAISNDLKSIRTQEKAQLQDLNDRFASFIERVHELEQQNKVLEAELLVLRQKHSEPSRFRALYEQEIRDLRLAAEDATNEKQALQGEREGLEETLRNLQARYEEEVLSREDAEGRLMEARKGADEAALARAELEKRIDSLMDEISFLKKVHEEEIAELQAQIQYAQISVEMDVTKPDLSAALKDIRAQYEKLAAKNMQNAEEWFKSRFTVLTESAAKNTDAVRAAKDEVSESRRLLKAKTLEIEACRGMNEALEKQLQELEDKQNADISAMQDTINKLENELRTTKSEMARYLKEYQDLLNVKMALDIEIAAYRKLLEGEETRLSFTSVGSITSGYSQSSQVFGRSAYGGLQTSSYLMSTRSFPSYYTSHVQEEQIEVEETIEAAKAEEAKDEPPSEGEAEEEEKDKEEAEEEEAAEEEEAAKEESEEAKEEEEGGEGEEGEETKEAEEEEKKVEGAGEEQAAKKKD
With B4 the Y2H matrices (HCV proteins; [3]) was “+”, the “Interaction with viral protein” value [1] was “NS3” and the “IMAP Y2H IMAP1 (number of IST)” value ([2]; HCV protein NS3 as bait) was 1.

B5: LRRTM1 (protein, UniProt Q86UE6 35-522, looked up)
Leucine-rich repeat …: APSGCPQLCRCEGRLLYCEALNLTEAPHNLSGLLGLSLRYNSLSELRAGQFTGLMQLTWLYLDHNHICSVQGDAFQKLRRVKELTLSSNQITQLPNTTFRPMPNLRSVDLSYNKLQALAPDLFHGLRKLTTLHMRANAIQFVPVRIFQDCRSLKFLDIGYNQLKSLARNSFAGLFKLTELHLEHNDLVKVNFAHFPRLISLHSLCLRRNKVAIVVSSLDWVWNLEKMDLSGNEIEYMEPHVFETVPHLQSLQLDSNRLTYIEPRILNSWKSLTSITLAGNLWDCGRNVCALASWLNNFQGRYDGNLQCASPEYAQGEDVLDAVYAFHLCEDGAEPTSGHLLSAVTNRSDLGPPASSATTLADGGEGQHDGTFEPATVALPGGEHAENAVQIHKVVTGTMALIFSFLIVVLVLYVSWKCFPASLRQLRQCFVTQRRKQKQKQTMHQMAAMSAQEYYVDYKPNHIEGALVIINEYGSCTCHQQPARECEV
For B5, the Y2H matrices (HCV proteins; [4]) was “+”, the “Interaction with viral protein” value [1] was “CORE” and the “IMAP Y2H IMAP1 (number of IST)” value ([2]; HCV protein CORE as bait) was 1.

B6: MLXIP (protein, UniProt Q9HAP2 2-919, looked up)
MLX-interacting protein: AADVFMCSPRRPRSRGRQVLLKPQVSEDDDDSDTDEPSPPPASGAATPARAHASAAPPPPRAGPGREEPPRRQQIIHSGHFMVSSPHREHPPKKGYDFDTVNKQTCQTYSFGKTSSCHLSIDASLTKLFECMTLAYSGKLVSPKWKNFKGLKLQWRDKIRLNNAIWRAWYMQYLEKRKNPVCHFVTPLDGSVDVDEHRRPEAITTEGKYWKSRIEIVIREYHKWRTYFKKRLQQHKDEDLSSLVQDDDMLYWHKHGDGWKTPVPMEEDPLLDTDMLMSEFSDTLFSTLSSHQPVAWPNPREIAHLGNADMIQPGLIPLQPNLDFMDTFEPFQDLFSSSRSIFGSMLPASASAPVPDPNNPPAQESILPTTALPTVSLPDSLIAPPTAPSLAHMDEQGCEHTSRTEDPFIQPTDFGPSEPPLSVPQPFLPVFTMPLLSPSPAPPPISPVLPLVPPPATALNPPAPPTFHQPQKFAGVNKAPSVITHTASATLTHDAPATTFSQSQGLVITTHHPAPSAAPCGLALSPVTRPPQPRLTFVHPKPVSLTGGRPKQPHKIVPAPKPEPVSLVLKNARIAPAAFSGQPQAVIMTSGPLKREGMLASTVSQSNVVIAPAAIARAPGVPEFHSSILVTDLGHGTSSPPAPVSRLFPSTAQDPLGKGEQVPLHGGSPQVTVTGPSRDCPNSGQASPCASEQSPSPQSPQNNCSGKSDPKNVAALKNRQMKHISAEQKRRFNIKMCFDMLNSLISNNSKLTSHAITLQKTVEYITKLQQERGQMQEEARRLREEIEELNATIISCQQLLPATGVPVTRRQFDHMKDMFDEYVKTRTLQNWKFWIFSIIIKPLFESFKGMVSTSSLEELHRTALSWLDQHCSLPILRPMVLSTLRQLSTSTSILTDPAQLPEQASKAVTRIGKRLGES
For B6, the Y2H matrices (HCV proteins; [3]) was “+”, the “Interaction with viral protein” value [1] was “NS3” and the “IMAP Y2H IMAP1 (number of IST)” value ([2]; HCV protein NS3 as bait) was 1.

B7: NAP1L1 (protein, UniProt P55209 2-388, looked up)
Nucleosome assembly protein …: ADIDNKEQSELDQDLDDVEEVEEEETGEETKLKARQLTVQMMQNPQILAALQERLDGLVETPTGYIESLPRVVKRRVNALKNLQVKCAQIEAKFYEEVHDLERKYAVLYQPLFDKRFEIINAIYEPTEEECEWKPDEEDEISEELKEKAKIEDEKKDEEKEDPKGIPEFWLTVFKNVDLLSDMVQEHDEPILKHLKDIKVKFSDAGQPMSFVLEFHFEPNEYFTNEVLTKTYRMRSEPDDSDPFSFDGPEIMGCTGCQIDWKKGKNVTLKTIKKKQKHKGRGTVRTVTKTVSNDSFFNFFAPPEVPESGDLDDDAEAILAADFEIGHFLRERIIPRSVLYFTGEAIEDDDDDYDEEGEEADEEGEEEGDEENDPDYDPKKDQNPAEC
With B7 the Y2H matrices (HCV proteins; interaction with HCV protein NS5A) was “+”, the “Interaction with viral protein” value [1] was “NS3 and NS5A” and the “IMAP Y2H IMAP2 (number of IST)” value ([2]; HCV protein NS3 as bait) was 1. For the same molecule, the “IMAP Y2H IMAP1 (number of IST)” value ([2]; HCV protein NS5A as bait) was 1 and the “IMAP Y2H IMAP2 (number of IST)” value ([2]; HCV protein NS5A as bait) was 31.
